Experiment [1] addresses hsEGFR (human (printed only as 'hs')) (UniProt P00533). The experiment is described as follows: two-colour flow cytometry after 24 hours, b-hsEGFR/SA-PE and Fc-specific AlexaFluor 647. A general note: A flow cytometer gives signals particle by particle.
For experiment [2] the target is unchanged. The experiment is described as follows: two-colour flow cytometry after 48 hours, b-hsEGFR/SA-PE and Fc-specific AlexaFluor 647.

As to “antibody matuzumab (IgG molecule) secreted by yeast and displayed through the ZZ domain”, the figures for the percent of cells within the marker region M1 in experiment [1] and in experiment [2] were 36.4% and 43.4%, respectively.

The record behind these values is patent US20150337292A1.
